Numbering of substitutions follows the chain as printed. Names and notes keep the numbering of the source.
B1: PYL4H82R V97A (AtPYL H82 and V97A) (receptor)
chain: MLAVHRPSSAVSDGDSVQIPMMIASFQKRFPSLSRDSTAARFHTHEVGPNQCCSAVIQEISAPISTVWSVVRRFDNPQAYKRFLKSCSVIGGDGDNAGSLRQVHVVSGLPAASSTERLDILDDERHVISFSVVGGDHRLSNYRSVTTLHPSPISGTVVVESYVVDVPPGNTKEETCDFVDVIVRCNLQSLAKIAENTAAESKKKMSL
notes: also called PYL4H82R (found combined with V97A)
B2: PYL4A194T: AtPYL4 ABA receptor mutant polypeptide with A194T substitution (SEQ ID NO. 60; nucleic acid SEQ ID NO: 55); also over-expressed in plants (protein, listed as Arabidopsis thaliana)
chain: B1 chain with R82H, A97V, A194T

Assays:
[1] = system: Arabidopsis thaliana plants; experiment: Root growth assay of OE lines on ABA; format: in vivo; conditions: 10 μM ABA, 10 d after transfer
Experimental: Seedlings were grown on vertically oriented MS plates for 4 to 5 days. Afterwards, 20 plants were transferred to new MS plates lacking or supplemented with the indicated concentrations of ABA. The plates were scanned on a flatbed scanner after 10-d to produce image files suitable for quantitative analysis of root growth using the NIH software ImageJ v1.37. As an indicator of shoot growth, the maximum rosette radius was measured.

6His-ΔNPP2CA = experiment: Binding assay with 6His-ΔNPP2CA (Ni-affinity co-purification, size exclusion, pull-down); set-up: species or system Arabidopsis; conditions: for pull-down interaction with PP2CA: absence or presence of 100 μM ABA
Experimental: For small scale protein purifications, E. coli BL21 (DE3) cells transformed with the corresponding constructs were grown in 100 ml of LB medium to an OD600 of 0.6-0.8. At this point 1 mM isopropyl-β-D-thiogalactoside (IPTG) was added and the cells were harvested after overnight incubation at 20° C. Pellets were resuspended in lysis buffer (50 mM Tris pH 7.5, 250 mM KCl, 10% Glycerol, 1 mM β-mercaptoethanol) and lysed by sonication with a Branson Sonifier 250. The clear lysate obained after centrifugation was purified by Ni-affinity. A washing step was performed using 50 mM Tris, 250 mM KCl, 20% Glycerol, 30 mM imidazole and 1 mM […] washing buffer, and finally the protein was eluted using 50 mM Tris, 250 mM KCl, 20% Glycerol, 250 mM imidazole and 1 mM […] elution buffer For protein-protein interaction experiments, the pET28a_ΔNPP2CA, pETM11_PYL4 wt and pETM11_PYL4A194T plasmids were transformed into E. coli BL21 (DE3). A total of 8 ml of an overnight culture were sub-cultured into 800 ml fresh 2TY broth (16 g Bacto tryptone, 10 g yeast extract, 5 g NaCl per litre of solution) plus kanamycin (50 μg ml-1). Protein expression was induced with 0.3 mM IPTG and the cells were harvested after overnight incubation at 20° C. Pellets were resuspended in 25 mM TrisHCl pH 8.0, 50 mM NaCl, 50 mM imidazole, 5 mM […] and disrupted by sonication. After centrifugation (40 min, 40000 g) at 277 K, the clear supernatant was filtered (pore diameter […]; Millipore Corporation, Bedford, Mass., USA). The 6His-tagged proteins were purified using Ni-NTA Agarose (Qiagen) according to the manufacturer's instructions. The filtered supernatant was mixed with the previously equilibrated beads. After incubation, a washing step with ten volumes of 25 mM TrisHCl pH 8.0, 50 mM NaCl, 20 mM imidazole, 5 mM […] buffer was performed followed by the elution from the Ni2+ resin in a buffer with 500 mM imidazole. Imidazole was removed using a PD-10 column (GE Healthcare) and the His-tag was cleaved using TEV protease.
6His-ΔNPP2CA pellets were resuspended in 25 mM TrisHCl pH 8.0, 150 mM NaCl, 50 mM imidazole, 5 mM 3-mercaptoethanol, 5 mM Mg2+, mixed with 8 mg of either pure non-tagged (through TEV cleavage) PYL4 or PYL4A194T and disrupted by sonication. The crude extracts were treated as described above using His-Trap HP columns from GE Healthcare to the capture step according to the manufacturer's instructions. In all cases, the purified proteins were subjected to a size exclusion chromatography using a Superdex200 10/300 (Amersham Biosciences Limited, UK) to analyze the behavior in a gel filtration of each protein and to isolate the complex. […] After three washes, proteins were eluted by adding 500 mM imidazol and analyzed by SDS-PAGE.

[2] = system: Arabidopsis thaliana plants; experiment: Whole-rosette stomatal conductance and transpiration measurements; format: in vivo; conditions: basal conditions; for stomatal conductance (Gst) and transpiration versus non-transformed Col: OE plants
Experimental: The Arabidopsis whole-rosette gas exchange measurement device, plant growth practice and custom written program to calculate transpiration and Gst for water vapour have been described previously (Kollist et al. 2007; Vahisalu et al., 2008). For gas-exchange experiments, 25-28-d-old plants (rosette area 6-18 cm2) were used. Until measurements, plants were grown in growth chambers (AR-66LX and AR-22L, Percival Scientific, IA, USA) at 12/12 photoperiod, 23/18° C. temperature, air relative humidity of 70-80% and 150 μmol m-2 s-1 light. During gas exchange measurements, temperature, air relatively humidity, photoperiod and light in the cuvettes were kept as similar as possible to the
values in growth chambers. Photographs of plants were taken before and after the experiment and rosette leaf area was calculated using the NIH software ImageJ 1.37v. Leaf area values for the intermediary experimental period were calculated using linear regression between starting and final leaf area.

[3] = system: Arabidopsis thaliana plants; experiment: Dehydration treatment of seedlings in laminar flow hood; format: in vivo; conditions: OE plants; 15-d-old seedlings, 12 h of dehydration, scored 3-d afterwards
Experimental: 2-weeks-old seedlings grown in MS plates were used for these experiments. Twenty seedlings per genotype (two independent experiments) were submitted to the drying atmosphere of a flow laminar hood for 12 hours (25° C.±1° C., 25%±2% relative humidity), then rehydrated with 25 ml of water. Survival percentage was scored 3 days after rehydration by counting the percentage of plants that had at least four green leaves.

Molecule | ABA-mediated inhibition of root growth [1] | pull-down interaction with PP2CA (6His-ΔNPP2CA) | stomatal conductance (Gst) and transpiration versus non-transformed Col [2] | survival after dehydration followed by rehydration [3] | co-purification with 6His-ΔNPP2CA by Ni-affinity chromatography (6His-ΔNPP2CA; absence of ABA) | complex with 6His-ΔNPP2CA by size exclusion chromatography (6His-ΔNPP2CA; absence of ABA) | stomatal conductance (Gst) versus PYL4 OE plants [2]
PYL4: AtPYL4 wild type ABA receptor polypeptide (SEQ ID NO:3, At2g38310) [reference compound] | enhanced ABA-mediated inhibition of root growth compared to non-transformed plants | dependent on the addition of ABA | lower Gst and transpiration values than non-transformed Col plants | – | – | – | –
B1 | – | – | – | ~25% | – | – | –
B2 | enhanced ABA-mediated inhibition of root growth compared to non-transformed plants | ABA-independent binding | lower Gst and transpiration values than non-transformed Col plants | approximately 40% | could be co-purified | 1:1 complex | lower Gst values than PYL4 OE plants

From patent US20160068860A1, “TRANSGENIC PLANTS” (CONSEJO SUPERIOR DE INVESTIGACIONES CIENTIFICAS (CSIC), priority 2013, published 2016)
